Measurements taken from the supplement of paper PMC12764529.
± gives the half width of the 95% confidence interval.

Experiments:
[1] = folding stability dG unfold (combined trypsin and chymotrypsin); higher = more stable
Procedure, shortened: (§1)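 Unfolding free energy was derived, per protease or combined, by relating Bayesian-fitted K50 values from sequencing counts to a sequence-predicted unfolded-state K50 and a shared folded-state K50. The underlying digests exposed cysteine-free mini-proteins under 80 residues, in a PA-tagged cDNA display construct, to trypsin and chymotrypsin at 11 threefold-diluted concentrations and to a no-protease condition. A filter kept only designs with AlphaFold2 dimer inter-PAE above 15.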

[2] = folding stability dG unfold from chymotrypsin proteolysis; higher = more stable
Procedure, shortened: as §1

[3] = folding stability dG unfold from trypsin proteolysis; higher = more stable
Procedure, shortened: as §1

Sequence	folding stability dG unfold [1] [kcal/mol]	folding stability dG unfold [2] [kcal/mol]	folding stability dG unfold [3] [kcal/mol]
SAGGSAGGSAGGPEIELLEDVKPGEFVVIKVKLKDADGNEVTATFVFYNGEWYLTKIEPSAGGSAGGSAGGS [r10_288_TrROS_Hall]	4.54 ± 0.2	4.73 ± 0.063	2.92 ± 0.14
SAGGSAGGSIEIPGGYTIPSSLSEEEAKEAAKKLFLEKNPELGVKEVEVKVETKNGKKTITVVKSAGGSAGG [r6_558_JUSTAS]	0.714 ± 0.28	0.857 ± 0.14	0.641 ± 0.074
SAGGSAGGSAGVSFVVDALFVDPNTNEVYHGHIEFYDDGTAKITLTNQNGKTKTFTFPVLFSAGGSAGGSAG [r3_61_TrMRF]	3.01 ± 0.19	3.25 ± 0.049	2.73 ± 0.14
SAGGSAGMTPVSEAVVPGPNVTTLTTYRDPSSSALITPVTTTPPDGVPVTTTTLDLGSSTVTLSTTSAGGSA [r15_993_JUSTAS]	0.97 ± 0.082	0.583 ± 0.21	1.06 ± 0.053
SAGGEVKIEVVEKDGELYIVVTVRAPSVEELKKALEELGLEVEVVKIEEVKGEDGETYVVVVVKIKPSAGGS [r16_699_TrROS_Hall]	3.24 ± 0.07	3.68 ± 0.065	2.41 ± 0.086
SAGSPETVTLPLTVTLPPGVPLSQIEAVLKKNGFTELEITASPTPDGTLRYAIDATMPVSVVEKLIKALSAG [r5_376_JUSTAS]	2.08 ± 0.059	2.24 ± 0.042	1.8 ± 0.035
SQWVIKIKFPNPDGEPVKIIFPVEEIQEIFKEEHGEPSSPQEFADRLAKHHPNVDVEIMPLDDMPPEQLNSA [r9_1085_TrROS]	-0.0736 ± 0.34	0.42 ± 0.21	-0.998 ± 0.66
SAGGSAGGLRVVKPEKVVEAIRKIRELVPKNYLVIVDSIEVREEGGKLYVDIPVLVLPVPPELLSAGGSAGG [r6_819_TrMRF]	1.65 ± 0.16	1.79 ± 0.072	1.54 ± 0.027
SAGGSAGGSAGMVLRVRTKDGKVIEIKDLSEELKNMTAEQLAEELKKKFPDLKIEVEEVPSAGGSAGGSAGG [r17_42_TrROS_Hall]	2.37 ± 0.15	2.26 ± 0.05	2.19 ± 0.14
SAGGSGMTTTFSKEVSSKEEAEKIFKRGFPDLNAKVTKFDPKKGTVEIELTFPDGKKSKATAPIKKSAGGSA [r2_201_JUSTAS]	-0.225 ± 0.37	0.0996 ± 0.5	-0.569 ± 0.58
SAGGSAGGSKKKVTINIVLTVKPGETLTLTVEITIDGKKYKVTKTLTYDPKTNKLVLTATVEPSAGGSAGGS [r12_136_TrROS_Hall]	5.03 ± 0.29	5.03 ± 0.24	3.78 ± 0.32
SAGGMKLTPEELKGKTIRIRIKVNGKEYEIEAKVVEVDGELYIEVKIINKETKEEKTITIPLDDVEIVSAGG [r13_289_TrROS_Hall]	2.39 ± 0.25	2.1 ± 0.064	2.67 ± 0.072
SAGGSAIENQFLRITMYHGNKPHTWTFPIKKVDIDPEDGNIEVYFPPEFRELFGGPMRITDIEFPPSAGGSA [r15_710_TrROS]	1.46 ± 0.067	1.63 ± 0.071	1.14 ± 0.019
SMKIYKTKEEAEKAAKETGKKVIVIKKGMSLEELLELLKKLKGLKEGQKVILVIQNEDGETYVIVLEIKPSA [r9_314_TrROS_Hall]	1.74 ± 0.17	1.43 ± 0.13	1.82 ± 0.099
SAGGMPENMKWRPIPFTQKNPDGLTLKMKIWVFPDPYILIEHEVEDNGKPVAEIPILLPADDPEDLKSAGGS [r16_714_TrROS]	0.389 ± 0.2	0.513 ± 0.42	-0.66 ± 0.6
SAGGMEVVFVVGSPEVAEAFREKHPDLPFVPVSLEDYRNPAPFEAAVAAVEARGHAVRVITVPDDPESAGGS [r8_376_JUSTAS]	0.796 ± 0.064	1.12 ± 0.05	0.0526 ± 0.14

Sequence	folding stability dG unfold [1] [kcal/mol]	folding stability dG unfold [2] [kcal/mol]	folding stability dG unfold [3] [kcal/mol]
SAGGSAGGSAGVVRTDDGREVTVRRTVRVEVRLEITITASEEDREKAAAALERLLRELGLSAGGSAGGSAGG [r17_501_TrROS_Hall]	2.86 ± 0.16	3.04 ± 0.086	2.68 ± 0.24
SAGGSAGGSAGGKKIIKVNLRIYDPVNPKVTVLPIEAPFDEIIKIAKEIAAPDQVVEISSAGGSAGGSAGGS [r10_397_TrMRF]	-0.654 ± 0.16	-0.506 ± 0.097	-0.844 ± 0.16
SAGGALILLFPHPESRTVTALFVHPDGGSETIPFPVPESIDSLEEVADRLLREARERFPVPVEVVVASAGGS [r8_166_TrMRF]	1.2 ± 0.038	1.37 ± 0.033	0.944 ± 0.012
SAGGSAGGDALKELIKNMPPGEPRKITIPIKYEDGRYYRIDIEIQMNPNNGEWQLDIDIEPYPPSAGGSAGG [r6_545_TrROS]	1.91 ± 0.25	2.46 ± 0.054	0.881 ± 0.089
SAGGSAGGKKKYRALITLRSKDGKPIAPIEIETDSPEELLKTAKKIIEEATKENEPVEIKVEEYSAGGSAGG [r6_285_TrMRF]	1.59 ± 0.11	1.8 ± 0.093	1.09 ± 0.054
SAGGKVVVVPFPGPVTPETVAALAAKFIEEGLYDVPLVVVSEVEGRRPDGRPGRRRFGFVYVAKAPKSAGGS [r16_44_TrMRF]	1.59 ± 0.1	1.98 ± 0.13	1.23 ± 0.051
SVVLDVPYENRPDLLATIRALVAEKAPPVVVFVEAPEAERARLRRELEALGFTVEPTPVPNRYRITFRPASA [r9_600_TrMRF]	3.15 ± 0.067	3.07 ± 0.058	3.15 ± 0.085
SAGGSAGGSAGGSPLPGQPPEVILIKLDKPVKVGQTITLPDGYKLEVNEETGYLLIVKTSAGGSAGGSAGGS [r4_78_TrROS_Hall]	0.843 ± 0.051	0.992 ± 0.081	0.705 ± 0.05
SAGGMVIVVKTPGGATSITLGNLTITQDPSTGVAVAEATPEQVEALKKDPALKDIESIEILPEEELKSAGGS [r8_493_JUSTAS]	0.458 ± 0.14	0.648 ± 0.056	0.307 ± 0.024
SAGGSAMTPEEIRNMSLEEILKLIKEKLEKGEKVEIEITLPDGRKLRITFERLPNGEIKITIEEVDSAGGSA [r15_857_TrROS_Hall]	4.72 ± 0.28	5.04 ± 0.32	3.53 ± 0.2
SAGGSAGGSAGGNYFMMVVLEIRLPPELKGMSPEEWLKKNGYEVTEIEIKGIYPFPPPDGSAGGSAGGSAGG [r7_62_TrROS]	2.9 ± 0.1	3.31 ± 0.062	2.02 ± 0.12
WLKFPFPIYNPGFGRPAKFEIELWPDGQLQVTWNGQPILSIPIRIVPPPEVEVDPEYDPNGKEKPKWKYPGS [r1_496_TrROS]	1.39 ± 0.35	1.81 ± 0.16	0.438 ± 0.22
SGMTVTPVTHPNGQTLTLTFDPETGTVTVNRSPAISLEEVKAALEALIPSDRSVTVSTLPDGTAAVTLTASA [r9_933_JUSTAS]	1.27 ± 0.059	1.06 ± 0.1	1.36 ± 0.04
SAGGSAGGKKKKKPPKKKYFYVEIEIELTPEEIEKLKELFPDVKVEVEEKDGKLRVRITVRVKLSAGGSAGG [r6_685_TrROS_Hall]	3.26 ± 0.087	3.48 ± 0.05	2.79 ± 0.16
SAGGSAGGSAGGMPVTLNVTVKTKDPDGVAATETVTLTFSSPEEALAAIKAAYPNSTIESAGGSAGGSAGGS [r10_1248_JUSTAS]	1.15 ± 0.12	1.33 ± 0.061	0.995 ± 0.057
